Reference: paper PMC9600919

Molecular target: N-terminally 3× FLAG-tagged IglD from Francisella novicida (Francisella novicida) (UniProt Q7X3J2)
Assay: cryo-EM structure

“N-terminally 3× FLAG-tagged IglD from Francisella novicida (from UniProt Q7X3J2 1-398) (natural protein)” gave a stoichiometry N of 3.
